Source: publication PMC4387560 (Cell Research, 2015)

Biological target: T1, Scp1-WD40 (residues 567-1085) (S. pombe, UniProt O43043 567-1085)
T1 sequence (looked up): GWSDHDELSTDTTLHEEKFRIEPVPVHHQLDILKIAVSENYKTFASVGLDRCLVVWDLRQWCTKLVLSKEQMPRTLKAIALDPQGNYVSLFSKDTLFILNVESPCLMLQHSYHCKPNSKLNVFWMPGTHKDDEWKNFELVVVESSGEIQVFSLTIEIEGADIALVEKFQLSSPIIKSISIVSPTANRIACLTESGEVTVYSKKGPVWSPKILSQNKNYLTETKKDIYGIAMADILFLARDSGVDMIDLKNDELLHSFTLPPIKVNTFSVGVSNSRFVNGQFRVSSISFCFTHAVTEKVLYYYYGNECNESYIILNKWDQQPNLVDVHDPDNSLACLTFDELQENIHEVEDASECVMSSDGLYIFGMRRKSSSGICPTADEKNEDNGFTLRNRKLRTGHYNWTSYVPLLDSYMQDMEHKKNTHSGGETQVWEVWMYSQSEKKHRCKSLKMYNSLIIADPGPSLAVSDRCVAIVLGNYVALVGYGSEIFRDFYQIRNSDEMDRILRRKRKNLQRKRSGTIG
Assay: pull-down

binding result: binds
B1: MBP-fused regulatory domain of Sre1 (residues 628-900) (domain or fragment, S. pombe, UniProt Q9UUD1 628-900, looked up)
chain: QHSKSSVHAELRELPECTANLIENSHADDVFSPNMVERLWVLAKCTRDSAQMSDSIISSLSDVLVLSPLEVLASWYAADLLDALLMESLSRKVEISEIEEIISLCPKNSSIIRHALLAKLVLFPENTADSLNEVLAAYKNTLDLCSQDKRKQSSVLKINLSKLFTLHSCLSLALQRLGYGDVSKRMYQEIFVPDSDADITPLSFIISWTALNTFAPICTSPKENDVVEKMAMYVRTAIGTLKIQDLKLSRKLINSCIDIGSRLQEDLGYVSSA
